The target of assay [1] is T1, human CD39 (NTPDase1, ENTPD1), membrane-bound, on cells (human, UniProt P49961 1-510).
T1 construct: Expressed on CHO cells, Hek-293T cells (wild type) or endogenous on Ramos cells; also called huCD39; CHO-huCD39
T1 sequence: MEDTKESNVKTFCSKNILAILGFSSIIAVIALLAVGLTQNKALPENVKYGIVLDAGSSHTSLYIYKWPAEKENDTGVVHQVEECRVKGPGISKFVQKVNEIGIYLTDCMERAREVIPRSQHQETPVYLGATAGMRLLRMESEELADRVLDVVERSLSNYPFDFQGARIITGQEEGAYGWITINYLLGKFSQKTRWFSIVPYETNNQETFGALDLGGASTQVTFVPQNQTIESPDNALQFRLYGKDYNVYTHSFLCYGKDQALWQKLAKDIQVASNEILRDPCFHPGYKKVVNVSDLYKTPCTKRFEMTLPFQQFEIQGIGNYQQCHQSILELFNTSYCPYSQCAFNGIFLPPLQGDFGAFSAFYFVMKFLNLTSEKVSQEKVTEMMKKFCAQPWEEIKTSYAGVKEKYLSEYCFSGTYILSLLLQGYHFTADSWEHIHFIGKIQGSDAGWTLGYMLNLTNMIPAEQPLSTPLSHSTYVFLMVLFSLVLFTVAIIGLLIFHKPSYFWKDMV
In words: flow cytometry on Ramos lymphoma cells, first set of experiments. The procedure: (§1) Cells were incubated with various concentration of unlabeled anti-CD39 antibody from 30 μg/ml to 5×10⁻⁴ μg/ml, for 30 minutes at 4° C. After washes, cells were incubated with Goat anti-mouse H+L labeled secondary antibody for 30 min at 4° C.

The target of assay [2] is T2, murine CD39 on CHO cells (murine, UniProt P55772 1-510).
T2 construct: whole, on cells; also called CHO-moCD39; mouse CD39
T2 sequence (looked up): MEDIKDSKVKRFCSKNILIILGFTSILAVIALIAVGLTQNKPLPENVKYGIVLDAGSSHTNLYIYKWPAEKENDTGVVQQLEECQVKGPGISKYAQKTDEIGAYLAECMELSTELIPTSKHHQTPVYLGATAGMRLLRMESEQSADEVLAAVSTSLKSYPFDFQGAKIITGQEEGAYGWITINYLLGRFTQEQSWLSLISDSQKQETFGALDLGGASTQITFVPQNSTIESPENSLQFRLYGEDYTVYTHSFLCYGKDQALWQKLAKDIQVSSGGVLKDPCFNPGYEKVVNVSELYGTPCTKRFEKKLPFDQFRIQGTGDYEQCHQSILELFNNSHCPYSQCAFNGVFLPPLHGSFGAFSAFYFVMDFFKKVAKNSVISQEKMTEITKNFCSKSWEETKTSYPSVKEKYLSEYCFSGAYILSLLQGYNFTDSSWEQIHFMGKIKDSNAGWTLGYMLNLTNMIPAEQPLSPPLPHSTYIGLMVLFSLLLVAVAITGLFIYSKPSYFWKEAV
In words: flow cytometry titration on CHO cells expressing murine CD39 (panel CHO-moCD39). On the procedure:
as §1

For assay [3], the target named is T3, CD39 mutant 5 (human, UniProt P49961 1-510).
T3 construct: Expressed on Hek-293T cells; also called M5
T3 chain: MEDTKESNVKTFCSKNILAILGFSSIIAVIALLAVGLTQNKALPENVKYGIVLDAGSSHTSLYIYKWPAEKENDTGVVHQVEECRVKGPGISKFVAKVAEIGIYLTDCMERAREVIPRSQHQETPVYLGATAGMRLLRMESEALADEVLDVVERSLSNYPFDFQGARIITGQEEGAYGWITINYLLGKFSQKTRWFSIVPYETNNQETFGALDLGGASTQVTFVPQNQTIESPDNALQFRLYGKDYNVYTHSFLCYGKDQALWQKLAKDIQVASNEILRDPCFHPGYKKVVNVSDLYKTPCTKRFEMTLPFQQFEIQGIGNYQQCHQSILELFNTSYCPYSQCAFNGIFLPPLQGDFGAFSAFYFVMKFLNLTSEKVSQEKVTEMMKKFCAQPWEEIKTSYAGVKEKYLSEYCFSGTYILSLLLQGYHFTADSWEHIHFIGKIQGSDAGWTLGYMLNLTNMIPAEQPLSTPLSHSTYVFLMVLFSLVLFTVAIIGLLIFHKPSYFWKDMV
Put plainly: flow cytometry, Hek-293T cells transfected with CD39 mutant 5 (panel M5), Comp-Alexa Fluor 647-A. The procedure:
Mutants were transfected in Hek-293T cells, as shown in the table 1, using numbering of SEQ ID NO: 2. […] Mutant 19 includes substitutions at residues R138, M139 and E142.
Mutants were transfected in Hek-293T cells, as shown in the table 1, using numbering of SEQ ID NO: 2. Dose-ranges of test antibodies (10-2.5-0.625-0.1563-0.0391-0.0098-0.0024-0.0006 μg/ml) are tested on the 20 generated mutants by flow cytometry.
Background: Flow cytometry measures light scatter and fluorescence of single cells or particles in a stream.

From US20190218308A1 (INNATE PHARMA, published 2019) come the findings set out here.

B1: antibody I-394 (antibody, human IgG1, kappa, V domains shown)
VH: EVQLQQSGPELVKPGASVKMSCKASGYTFTDYNMHWVKQSHGRTLEWIGYIVPLNGGSTFNQKFKGRATLTVNTSSRTAYMELRSLTSEDSAAYYCARGGTRFAYWGQGTLVTVSA
VL: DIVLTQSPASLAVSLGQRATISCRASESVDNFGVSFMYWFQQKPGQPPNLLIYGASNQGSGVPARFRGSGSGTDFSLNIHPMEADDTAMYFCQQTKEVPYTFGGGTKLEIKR
On to B1, for which, in assay [1], the response was half-maximal at 0.16 µg/mL (EC50). The binding result in assay [2] is on record as “no binding (tested: about 30 µg/ml)”; in assay [3] it was “binds”.
